Literature values as cited in PMC9958082.

Biological target: E-cadherin (Homo sapiens) (UniProt P12830)
Conditions: cited from earlier work

Chain of UniProt P12830 (P12830 155-709): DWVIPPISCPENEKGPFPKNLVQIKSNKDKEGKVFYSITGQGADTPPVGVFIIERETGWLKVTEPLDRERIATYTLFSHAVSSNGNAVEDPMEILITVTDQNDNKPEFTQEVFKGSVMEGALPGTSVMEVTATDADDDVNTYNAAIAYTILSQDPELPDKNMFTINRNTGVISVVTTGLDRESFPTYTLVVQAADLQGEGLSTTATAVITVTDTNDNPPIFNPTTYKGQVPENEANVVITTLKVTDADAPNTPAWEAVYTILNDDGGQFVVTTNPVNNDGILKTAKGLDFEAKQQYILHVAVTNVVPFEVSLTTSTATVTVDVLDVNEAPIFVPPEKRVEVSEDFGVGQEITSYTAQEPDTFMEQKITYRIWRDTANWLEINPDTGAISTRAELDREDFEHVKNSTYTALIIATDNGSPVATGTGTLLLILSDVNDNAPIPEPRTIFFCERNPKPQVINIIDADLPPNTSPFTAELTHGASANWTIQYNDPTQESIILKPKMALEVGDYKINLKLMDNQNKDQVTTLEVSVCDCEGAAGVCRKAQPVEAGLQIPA

## HA (hemagglutinin complex) (from UniProt P46085)
  Kd: 2300 nM
